Eleven molecules from US20260217847A1 (published 2026) can be followed below.

As a reminder, the EC50 is the concentration that produces a half-maximal response.

What all share (assay): ELISA
In general terms: ELISA stands for enzyme-linked immunosorbent assay.

Test [1] deals with T1, human recombinant TfR1 protein (amino acids 89-760) (human, UniProt P02786 89-760).
The target in test [2] is T1, human recombinant TfR1 protein (amino …). The source holds these as a separate data set.
Test [3] shares this target. The source holds these as a separate data set.

Residue numbers refer to the chain shown, from its start. Like-named read-outs stand apart in the source and are kept apart here.

T1 sequence (P02786 89-760): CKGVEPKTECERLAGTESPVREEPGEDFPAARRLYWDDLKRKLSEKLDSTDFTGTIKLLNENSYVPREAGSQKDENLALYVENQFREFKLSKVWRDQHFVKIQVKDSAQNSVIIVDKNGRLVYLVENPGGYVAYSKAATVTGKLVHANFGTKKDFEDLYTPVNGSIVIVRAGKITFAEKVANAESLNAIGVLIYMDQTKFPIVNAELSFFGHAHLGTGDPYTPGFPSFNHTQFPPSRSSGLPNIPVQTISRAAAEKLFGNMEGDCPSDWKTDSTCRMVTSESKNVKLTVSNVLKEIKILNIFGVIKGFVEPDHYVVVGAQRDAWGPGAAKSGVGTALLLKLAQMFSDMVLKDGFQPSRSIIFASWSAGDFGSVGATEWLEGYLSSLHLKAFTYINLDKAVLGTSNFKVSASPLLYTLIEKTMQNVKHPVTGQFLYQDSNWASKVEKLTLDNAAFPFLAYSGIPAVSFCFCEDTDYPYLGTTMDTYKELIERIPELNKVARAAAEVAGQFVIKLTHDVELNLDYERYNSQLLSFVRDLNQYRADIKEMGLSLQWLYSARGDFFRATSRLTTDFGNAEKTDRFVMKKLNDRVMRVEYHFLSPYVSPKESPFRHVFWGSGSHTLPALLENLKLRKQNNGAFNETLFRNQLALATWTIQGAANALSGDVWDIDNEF

B1: anti-humanized TfR1 single-domain antibody-Fc fusion antibody 4C5-hFC1 (Fc fusion)
chain (part 1 of 2): ESGGGLVQPGESLRLSCAASGSIWSIYTMGWYRQAPGLQRDFVGSIAREGGRRYAESVKDRFTISRDNAKNTMYLQMNSLKREDTAVYYCNAITSLGEYWGQGTQVTVSS
Turning to B1, the EC50 in test [1] amounted to 0.0644 nM.

B2: anti-humanized TfR1 single-domain antibody-Fc fusion antibody 5D1-hFC1 (Fc fusion)
chain (part 1 of 2): B1 chain (part 1 of 2) with A18V, L38K, G44A, A47T, E49D, Y54H, M73L, R82P, Y89S, N91L
As for B2, in test [2], the EC50 was determined as 0.0595 nM.

B3: anti-humanized TfR1 single-domain antibody-Fc fusion antibody 7A3-hFC1 (Fc fusion)
chain (part 1 of 2): B1 chain (part 1 of 2) with A18V, L38K, G44A, A47T, E49D, G50S, M73L, M77T, R82P, N91H
For the molecule B3, in test [2], the EC50 was found to be 0.0521 nM.

B4: anti-humanized TfR1 single-domain antibody-Fc fusion antibody 2H7-hFC1 (Fc fusion)
chain (part 1 of 2): ESGGGLVQPGESLRLSCVASGSIWSIYTMGWYRQAPGKQRDFVASITGDSTRTLESVKDRFIISRDNTKNTLYLQMNSLKPEDTAVYYCQAITSLGEYWGQGTQVTVSS
As for B4, the EC50 in test [3] came to 0.0396 nM.

B5: anti-humanized TfR1 single-domain antibody-Fc fusion antibody 4D11-hFC1 (Fc fusion)
chain (part 1 of 2): B4 chain (part 1 of 2) with G48R, T68A, Q90H
In the case of B5, the EC50 in test [1] came to 0.0592 nM.

B6: anti-humanized TfR1 single-domain antibody-Fc fusion antibody 7D10-hFC1 (Fc fusion)
chain (part 1 of 2): ESGGGLVQPGGSLRLSCATSGGTFEMYAMAWFRQAPGKDREGVAGFSWRDSSTTYYSDSVKGRFTISRDNAKNTVYLQMNSLKPEDTAVYYCAARPYVSRWSESSGYDYWGQGTQVTVSS
Consider B6, for which the EC50 in test [2] came to 0.151 nM.

B7: anti-humanized TfR1 single-domain antibody-Fc fusion antibody 8E10-hFC1 (Fc fusion)
chain (part 1 of 2): ESGGGLVQAGGSLRLSCAFSGPPFSTYGMGWFRQAPGKEREFVATISGSGFTTTYADSVKGRFTISRDNAKNTVYLQMNSLKPGDTAVYYCAAGVLDGTNWHEYDYWGQGTQVTVSS
Turning to B7, the EC50 in test [3] came to 0.0962 nM.

B8: anti-humanized TfR1 single-domain antibody-Fc fusion antibody 7G5-hFC1 (Fc fusion)
chain (part 1 of 2): ESGGGSVQPGGSLRLSCAVSGSIFSIDTMAWYRQAPGKQRELVAAITKGGSRNYADSVKGRFTISRDNAKNTVYLQMNSLKPEDTAVYYCLADRLFRDRSWGQGTQVTVSS
For B8, the half-maximal effective concentration (EC50) in test [2] was 0.0724 nM.

B9: anti-humanized TfR1 single-domain antibody-Fc fusion antibody 7G10-hFC1 (Fc fusion)
chain (part 1 of 2): ESGGGLVQAGASLKLSCNGSGRTFISYAMGWFRQAPGKQREFVAAERWSGSGIYYADSLKGRFTISRDNAKNTVYLEMNNLKPEDTAVYYCAAREGGLLHVATSYDYWGQGTQVTVSS
With B9, in test [2], the EC50 is 0.0854 nM.

B10: anti-humanized TfR1 single-domain antibody-Fc fusion antibody 5D3-hFC1 (Fc fusion)
chain (part 1 of 2): ESGGGLVEPGGSLRLSCAASGNIFSINNMYWHRQAPGKQRELVGGITRGGITNYVDSVKGRFTISRDNAKNTVYLQMNSLKPEDTAVYFCNAHPWRLGIADYWGQGTQVTVSS
With B10, the EC50 in test [2] was found to be 0.0861 nM.

B11: anti-humanized TfR1 single-domain antibody-Fc fusion antibody 5A3-hFC1 (Fc fusion)
chain (part 1 of 2): ESGGGLVQAGGSLTLSCAVSRRAFNTKAMGWFRQAPGKEREFVATISWSGFSTNYADSVKGRFTISRDNAKNTVYLQMNSLKPGDTAVYYCAAGVLDGTNWHEYDYWGQGTQVTVSS
Turning to B11, in test [2], the EC50 was found to be 0.0761 nM.
